A protein production outcome set (Wang et al. 2014)

test: label from the status in PepcDB records

Sequence | protein production
MTDRSEDADGEPAPEDAAGLDDDALDHEFSEGAGFDDPYAGFDLDPPELDVDPDTVDPVDSRVVADTLDERTLDNDAVDADELIDVGLSYMGINRNEQAVDTFERAAQYTDDDNREQEAWVNKGIAHGELEEWDAAVGAHREALFVADDGDFEAAAHTNLAYALWEFGEDEQAYEHAEEAVRVDKRLPQAWYNLGFIENERDRPEQALDALDNAIRLGFQQADVYEEKTRALEALGRDEEAAKVAEQADEIRSQQERELVDER | failed
MTDRYIAFANSPVGRRLVGAVGLPSPLRLERWQAGRVRPVDGPLVIGGSGALAEAVLPFAGKLTDAVFAAVDGQFELPRWTAEHSPRAKAVLFDASGLTRFEQLVALRDFFQPVLKGLDKCPKVVVLGRPPESLKDPVTASVQRSLEGFTRSLGKEIRRGGNVQLLYVGKGAEDQLEGALRFFLSPKSAYVSGQVIRLAANSAQVHDWSKPLAGQRALVTGAARGIGAAIAETLARDGAEVVLLDVPPAREALEGLAARLGGRAVALDICAADAGQQLVEALPEGVDIVVHNAGITRDKTLAKMSSDFWNSVINVNLNAPQVLTQALLDGGKLHDNGRVVLLASISGIAGNLGQSNYAVSKAGLIGLAQAWAPALGKRGITINAVAPGFIETQMTAAIPLTIREAGRRMNSMSQGGLPQDVAETVAWFAQPSSGAVSGQVLRVCGQSLLGA | failed
MTDVEKPVDNSGTLIDDILSPLKGVNEDLNVLVLGGDKVNNNTDTMMLVNFKPSTSKVSILSIPRDTKVKINGKKAKINSAYPTGGGELAVQTVSELFGIDVKYYVFVDTSSFRKIIDILGGVDYYVPVDMDYDDPLQGLSIHIKKGQHHFDGAMAEKFMRFRQYNNGRVNEYYDGSDLKRIDAQQNFIRELVRQKLNIFYLTKVDDIASTIFSNIDTNLNMSEVLKLTGSVSKVQADSINMLKVPGKSVLDGAWYYVIDSQETDKIINEYFRTRYKLEHHHHHH | not failed
MTEAMIRKKPGMASVKDMPLLQDGPPPGGFAPVRYARRISNTGPSAMAIFLTVSGAFAWGMYQVGQGNKIRRALKEEKYAARRAILPILQAEEDERFVSEWKKYLEYEADVMKDVPGWKVGENVYNSGRWMPPATGELRPDVW | failed
MTEFTTLLQQGNAWFFIPSAILLGALHGLEPGHSKTMMAAFIIAIKGTIKQAVMLGLAATISHTAVVWLIAFGGMVISKRFTAQSAEPWLQLISAVIIISTAFWMFWRTWRGERNWLENMHGHDYEHHHHDHEHHHDHGHHHHHEHGEYQDAHARAHANDIKRRFDGREVTNWQILLFGLTGGLIPCPAAITVLLICIQLKALTLGATLVVSFSIGLALTLVTVGVGAAISVQQVAKRWSGFNTLAKRAPYFSSLLIGLVGVYMGVHGFMGIMR | failed
MTEGRVIDVDVSSEMESSFLEYAVSVIHSRALPDARDGLKPVQRRIVYQMGDMGLRPERGHVKSSRIVGDVMGKLHPHGDTAIYDALVRLSQSFIMRVPLVDGHGNFGSLDDGPAAPRYTEARLTSASMQMIAGLDEDVVDFVGNYDNTLTQPEVLPSAFPNLLINGTSGIAVGMATNMAPHNPGEVIAACCHLIRNPEAGLAELMRFIPGPDLPTGGRIIGLDGVREAYETGRGTFRTRATVSIENINARRKGIVVTELPYLVGPEKVVSKVKDAVGAKKLTGIASIDDYSDRKNGMRLVIGIKNGFNPEAVLAELYRQTPLEESFSMNNVCLVDGQPRTLGLRELLTVYLAHRIDVIRRRTVFQLRKAKDRLHLVEGLLIAILDIDEVIQLIRSSDDAATARTRLMDVFELSELQATYILDLQLRRLTKFSRIELEAERDELRKKIAYLEDLLADEAKLRELVATELEATAEAIGSPRRTVLIEGSMKELSAKGKKAQADLKIADAPCRVLLSTSGRIARTADASPLQRVGKRSSHDALRSEIVSTTQGKVGAVTSTGRLHMVDVVDLPALPPAATRPNVAGGVKIADYVTLEKNETVLGLIDLDREFVLGTAGGVVKRVSVAARPNKSEWEAITLKGKDSVIGVAQPKDIDESLAVFVTSNAQLLAFDASGLRAQGWNASGVAGMKVAADARALFFGMTPKAAKTDEEGDADTNIGTFAVVTVASGENFYGAPSSSIKVSDFSEYPTKGRATSGVRAHKFLKGETELSLAWVGDSPQAAAQAGGARTLPAEMSRRDATGSPLESKIDVIGTVPRLGDAEAALSGGGAGAGDSGAAGTDASGDGGAASGGGSSSSAATRTQGLATNFGELDLDLDGGPDLDEAKEEIARSKIDSDDAVIVSHDDDDDDDTALF | failed
MTEIERKFLVATFPDGELHAVPLRQGYLTTPTDSIELRLRQQGTEYFMTLKSEGGLSRQEYEIQIDVTQFEMLWPATEGRRVEKTRYSGKLPDGQLFELDVFAGHLSPLMLVEVEFLSEDAAQAFIPPPWFGEEVTEDKRYKNKALALSIP | not failed
MTEKKIDFKKEEKKFYAPKRKPERIFVPEMNFLMVDGKGDPDGEEYQKAVQSLYAIAYTIKMSKMGETRLDGYSDFVVPPLEGFWWSEGKFDLKDRDAWLWTSILRQPDFVTEEVLEWAKEVARKKKPDV | failed
MTEKRRRLPRPEKAILWPASYLHHRSVTQQLPIMSTPHTDFFGLTIPFMQLLGVVPEHSGNGTARTRLPARADLVNSRGDIHGGTLMSVLDFTLGAAIRGDTPEVGVATIDMNTSFMSPGRGDLVIETRCLRRGASIAFCEGEIRDSAGELVAKATATFKIIQRRPGGD | failed
MTENTSSFPRSSGELHEFTRADVWGGFTQLLPLSFFVVVFGLAFGVAAVQTGLDAFPTLLMSTLVFAGASQFATLEMWGAEVPLVPVLITVFAINARHLLMGATLYPWLRQLPPHKRYGIMLLASDANWAMAMNAFGKKEPGFGLLVGGGLALWGFWIVGTWMGIYFGGAIKDPVSLGLDMVMGCFLLSMVAGGPKNLRIFAIWGMAAASSLMAYWYLPENSHVVVGAIAGGILGACWKEKKA | failed
MTEPCRIIGVLDNGAEGLTPQALAYLHAADLVIGAGRTLALFEAHLAEGAECRDLGGRLAQVPDWIAEARRNGKRVAVLATGDPLCHGIAGYLGNKLGREALEILPNVSTIQLACARLGLPWQDMAIGSVHSRDAGDWTPGAGPGHGLYGLLQKLRQADLMGVFTSPENGPDRIARMLRAEGLDEEFEMAIAERLLQADERIHGWLGIAEAAGQCFADPNVVLLRRRPCEREALFGLPDTRFRQRAPDKGLITKREVRAVSLARLALRPDSIVWDIGAGSGAVGLEAARLCPLGHVYAIEKNVEDFAIALSNRESLRVSNYTLVQAKAPRELDGWPDPHGVFIGGSGGELRELIQICLRRLRTGGWLVMNFATLENLAAAVDALKASGASWDVTQLQAARSRPILDMHRLQAENPVWIVCAQRENNE | failed
MTEQDIYKLLADGERVTLECKKAQNGVPNSLWETYSAFANTNGGILLLGVYENVAEKDSLMRFTITGVEDADKIRKDLWNTINSREKVNVNLLHDEDVQTISVNGKEVIAINVPRADYNLRPVYINNNLMRGTYRRNHEGDYHCTEQMIKMMVRDAYEDGNDRMFLEYYTMDDIDIPTLEGYRVMFKTNNPEHIWNSLDHKEFLMQLGGYVVNRKDGTEGLTIAGLLMFGKGLPVRERFDYLRMDYIDKSNLIGDQRYSDRLTYDGTWENNLFNFIRMVVPRLTRDIPRPFQMDGIIRKDDTPQHKAVREAFTNMIIHADLMLNGLLRVEKYDDRFVLSNPGLLKLPVEQIYAGGESKARNQRMQHMLRMIGYGENLGSGFPLILSAWNEKHWLKPELVEQPELMQVKLILHIENRVYVTKDVTKDVTKELTERQQIILEFMQADGTITISEMSQKTNVTERTIKRDIESLTEKGILSREGGRKEGRWVIRKILEHHHHHH | not failed
MTERFDCHHCNESLFGKKYILREESPYCVVCFETLFANTCEECGKPIGCDCKDLSYKDRHWHEACFHCSQCRNSLVDKPFAAKEDQLLCTDCYSNEYSSKCQECKKTIMPGTRKMEYKGSSWHETCFICHRCQQPIGTKSFIPKDNQNFCVPCYEKQHAMQCVQCKKPITTGGVTYREQPWHKECFVCTACRKQLSGQRFTARDDFAYCLNCFCDLYAKKCAGCTNPISGLGGTKYISFEERQWHNDCFNCKKCSLSLVGRGFLTERDDILCPDCGKDI | failed
MTEVNLNIYSPRWGRHETYIVELHKDYMEISMGAVTIKATYSENQDPEWSEETLQDIMNNDSVYPPEITQNLFQHAWLEWRKGALDNDEVTRELELVAQWVNKVTEAKPNSDFWRKYF | not failed
MTFASPDDVIRRFDEQNYLLDTGTASAIYLAVTLGRPLLLEGEPGVGKTTAAKTLAVVLDTTLIRLQCYEGLTANEALYDWNYQRQLLSIRLAEARGKGISDISEADLYTEAYLVDRPILRCVRHRGPTPPVLLIDEIDRADDEFEALLLEFLGESAVTVPELGTFLAECPPIAVLTSNRSRDLHDALRRRCLYHWIDYPEPDRAAAIVRRTVPGATAPLIENATQFVCTARDLDLDKPPGVAETIDWVAALVALGVADLTAADSSPALASLGALAKTPDDRTQIRDAYQAFTECSHA | failed
MTFFIFLLACSAAAATGIIFKPGAWYESLQKPAFTPPNWAFPVAWTTIYLLLAWAGYRLTLLPGSQTVLALWAAQIALNTLWTPVFFGANRIAAAMVILALLWIVVATMIVMALQLDIITGLILFPYLVWLSVAAALNFSILRHNR | failed
MTFPPPDPAVAPPAEPASRAPHGRPATSGQSASATTVGSGAPLPASSALASTPSQAGPTGRKRPGQSTVTARTGAPNLPDPLGDNVVGERAVVPPIQQGKSRTALTNELNAEPVAGTVPAAPGGDLFIDAVLAQSYRHFFGPTSQPAVPPRQQVISITRLMEKLAYLKPADQALVREAFQFSDEAHLGQYRQSGEPYITHPVAVAELCADWKLDVQSIMAALLHDVMEDQGITKSELAEKFGPKVSELVDGLTKLDKLEFQSREQAQAESFRKMLLAMARDVRVILVKLADRTHNMRTLDFVPPEKRRRIALETMEIYAPIAHRLGLNTIYRELQELSFKVGSPFRYATLEKAVKAARGNRREVVKRILEAAQSALAGAGIVAELSGREKTLYSIYRKMHDKQLSFSQVLDVYGFRVVVETQMHCYMAMGALHGLYKPMPGKFKDYIAIPKINGYQSLHTTLVGPFGTPVEFQIRTRGMHQIAEAGVAAHWMYKHQADHANDIQQQAHQWLQSLLDIQSQTGDSQEFLEHVKIDLFPDAVYVFTPKGHIRALPRGATALDFAYAVHSDLGNQCVAVKINNELLPLRTELKSGDIVEVVTAPYSKPNPSWLAFVRTGKARAAIRHYLKTTKLDEAIQLGERLLEQSTRQLGIELKAVPQSVWDRMIQWTGNKLKEDIFADLALGRRVPAVVARRMEILLQELSGDVDSALLAAVQTFAGEDAPAVPITGDEGMSMIFSACCRPIPGDSIVGYLGKGEGLQIHVQDCKVAKRLHSKDPEHWIEVMWAKKTTRAFDVSIKIMVRNVKGIVARVAADLTSADANVAHVAMEPQQGGHQEATYMQFVIQVQNRLHLANVMRALRRNPDVIRIFRDRNDG | failed
MTFPVIGVVGGGQLARMMAPPATALGFELRVLAEGEDVSAVAAVATAPIGDYKDLDALLEFSKGLDVMTFDHEHVPTQHLQALLDAGVNVQPGPDALVNAQDKLVMRAAIDRLGLPNPEWSAVNTVDELVAFGERIGWPVVLKTPRGGYDGKGVRMVDSADDALETADWFQAMSPLLAEAKVEFSRELSALVARSPSGESRAWPVVHTIQVDGVCDEVIAPAQNISVEVAAAAEEAALRIANELGVTGVMAAELFETPGVGVGFLINELAMRPHNTGHWTQDGSITSQFEQHLRAVLDLPLGATDALAPVVVMKNFLGGDNQDLFKAFPMALAFEPAAKVHSYGKSVRPGRKIGHVNLVGSSVSDVDSVRQRATAVANIIRDGRKPEQTTLEETA | failed
